Results on 6 substances are retold here after patent publication US20250051464A1.

Test [1] addresses Human EphA2 (ephrin receptor A2) (human) (UniProt P29317). As to the kind of experiment: IHC/IF score on frozen human tumor tissue, NSCLC-SQ.
Test [2] has the same target. Nature of the test: IHC/IF score on frozen human tumor tissue, ANC.
Test [3] has the same target. Nature of the test: IHC/IF score on frozen human tumor tissue, CRC.
Test [4] has the same target. As to the kind of experiment: IHC/IF score on frozen human tumor tissue, UCEC-endometriod.
Test [5] has the same target. As to the kind of experiment: IHC/IF score on frozen human tumor tissue, PANC.
For test [6] the target is unchanged. Nature of the test: IHC/IF score on frozen human tumor tissue, GAC.
Test [7] has the same target. As to the kind of experiment: IHC/IF score on frozen human tumor tissue, OVA.
Test [8] shares this target. As to the kind of experiment: IHC/IF score on frozen human tumor tissue, RCC-clear cell.
Test [9] has the same target. Nature of the test: IHC/IF score on frozen human tumor tissue, URO.
The target is the same in test [10]. Nature of the test: IHC/IF score on frozen human tumor tissue, ESC.
The target is the same in test [11]. As to the kind of experiment: IHC/IF score on frozen human tumor tissue, TNBC.
Test [12] shares this target. Nature of the test: IHC/IF score on frozen human tumor tissue, UCEC-clear cell.
The target is the same in test [13]. As to the kind of experiment: IHC/IF score on frozen human tumor tissue, UCEC-papillary.
Test [14] shares this target. Nature of the test: IHC/IF score on frozen human tumor tissue, ER+ BRC.
Test [15] has the same target. Nature of the test: IHC/IF score on frozen human tumor tissue, Her2+ BRC.
For test [16] the target is unchanged. Nature of the test: IHC/IF score on frozen human tumor tissue, STS.
Test [17] shares this target. As to the kind of experiment: IHC/IF score on frozen human tumor tissue, MELA.
The target is the same in test [18]. As to the kind of experiment: IHC/IF score on frozen human tumor tissue, HNC.
The target is the same in test [19]. Nature of the test: IHC/IF score on frozen human tumor tissue, PROC.
For test [20] the target is unchanged. Nature of the test: IHC/IF score on frozen human tumor tissue, NSCLC-Adeno.
Test [21] has the same target. As to the kind of experiment: IHC/IF score on frozen human tumor tissue, RCC-papillary.

Chain of Human EphA2 (ephrin receptor A2) (human) (P29317 24-976 limits assumed): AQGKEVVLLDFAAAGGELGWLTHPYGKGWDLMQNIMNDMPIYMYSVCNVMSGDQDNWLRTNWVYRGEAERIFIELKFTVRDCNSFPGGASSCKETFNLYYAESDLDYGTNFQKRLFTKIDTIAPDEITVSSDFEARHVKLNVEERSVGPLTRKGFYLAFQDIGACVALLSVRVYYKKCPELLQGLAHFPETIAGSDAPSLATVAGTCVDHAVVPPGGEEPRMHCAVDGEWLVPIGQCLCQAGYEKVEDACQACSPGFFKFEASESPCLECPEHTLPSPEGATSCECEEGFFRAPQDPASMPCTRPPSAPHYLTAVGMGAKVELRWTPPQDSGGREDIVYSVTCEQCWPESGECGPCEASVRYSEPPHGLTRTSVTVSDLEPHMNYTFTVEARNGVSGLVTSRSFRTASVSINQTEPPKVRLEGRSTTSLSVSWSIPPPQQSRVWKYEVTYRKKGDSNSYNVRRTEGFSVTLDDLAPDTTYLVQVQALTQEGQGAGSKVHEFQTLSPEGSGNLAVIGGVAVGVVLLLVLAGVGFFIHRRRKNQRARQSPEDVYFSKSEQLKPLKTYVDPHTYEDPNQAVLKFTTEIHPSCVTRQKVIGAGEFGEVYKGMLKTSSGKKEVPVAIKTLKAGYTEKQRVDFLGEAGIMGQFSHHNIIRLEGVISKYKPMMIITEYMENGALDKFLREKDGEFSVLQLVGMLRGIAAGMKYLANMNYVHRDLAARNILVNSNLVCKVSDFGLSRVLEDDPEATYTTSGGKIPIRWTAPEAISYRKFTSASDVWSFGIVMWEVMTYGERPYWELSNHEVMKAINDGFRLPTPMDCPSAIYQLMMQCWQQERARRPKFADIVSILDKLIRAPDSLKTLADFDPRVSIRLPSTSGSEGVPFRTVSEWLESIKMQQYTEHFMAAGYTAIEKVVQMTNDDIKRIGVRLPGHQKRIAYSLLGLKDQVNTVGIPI

Turning to Ab73254 (extracellular) (antibody), the IHC score in [1] was 2; in [2] it was 1; in [3], 1; in test [4] it was 1; in test [5] it was 1; in test [6] it was 1. Further, the IHC score in [7] was determined as 1; in [8], 1; in [9], 1; in test [10], 1; in test [11], 1; in test [12] it was 2. Besides, the IHC score amounted to 1 in [13]; 1 in test [14]; 1 in test [15]; 1 in test [16]; 2 in test [17]; 1 in test [18]. The IHC score in [19] was found to be 1; in [20], 2; in test [21] it was 1.

For the substance LS-B1794-50 (AA 450-500) (antibody), the IHC score in test [1], in test [2], in [3], in test [4], in [5] and in [6] was 1 each time. For the same substance, the IHC score in test [7] is 1; in [8], 1; in test [9], 1; in test [10], 1; in [11], 1; in test [12] it was 2. The IHC score in test [13] was found to be 2; in test [14], 1; in test [15], 1; in test [16] it was 1; in test [17], 2; in test [18] it was 1. Besides, the IHC score in [19] was 1; in test [20] it was 2; in [21], 2.

Consider “LS-C36249-100 (extracellular) (antibody)”, for which the IHC score worked out at 2 in test [1]; 2 in [2]; 1 in test [3]; 2 in test [4]; 1 in [5]; 1 in test [6]. Further, the IHC score was determined as 2 in test [7]; 1 in test [8]; 1 in test [9]; 2 in test [10]; 1 in test [11]; 2 in test [12]. For the same substance, the IHC score in [13] was determined as 3; in test [14] it was 1; in [15] it was 2; in test [16] it was 2; in test [17], 3; in [18] it was 2. In addition, the IHC score was 1 in test [19], 2 in test [20] and 1 in test [21].

Consider LS-C100255-400 (AA 30-60) (antibody), for which the IHC score in test [1], in test [2], in [3], in test [4], in [5] and in test [6] was 1 each time. The IHC score in test [7] stood at 1; in [8], 1; in [9], 1; in test [10], 1; in test [11], 1; in test [12], 2. Also, the IHC score in test [13] was determined as 2; in test [14], 1; in test [15], 1; in test [16] it was 1; in [17], 2; in [18], 1. Further, the IHC score in [19], in [20] and in [21] was 1 each time.

In the case of MAB3035 (Gln25-Asn534) (antibody), the IHC score came out at 2 in test [1]; 2 in [2]; 1 in test [3]; 2 in test [4]; 2 in test [5]; 1 in [6]. Further, the IHC score in [7] came out at 2; in test [8], 1; in [9], 1; in test [10] it was 2; in test [11], 1; in test [12] it was 2. Besides, the IHC score in test [13] was found to be 2; in test [14] it was 1; in test [15] it was 1; in test [16], 1; in test [17] it was 3; in test [18], 2. Moreover, the IHC score worked out at 1 in test [19], 2 in test [20] and 1 in test [21].

With 6997S (around Arg907) (antibody), the IHC score was determined as 1 in test [1]; 2 in [2]; 1 in test [3]; 1 in test [4]; 1 in test [5]; 1 in test [6]. Also, the IHC score in test [7] stood at 1; in test [8] it was 1; in [9] it was 1; in [10] it was 2; in test [11] it was 1; in [12], 2. Moreover, the IHC score in [13] came to 2; in test [14], 1; in test [15], 1; in test [16] it was 1; in [17], 2; in [18], 1. Further, the IHC score in [19], in [20] and in test [21] was 1 throughout.
